Source: the supplement of paper PMC10567573

B1: NET1 (parent)
chain: RVRPLARVTSLANLISPVRNGAVR

Variants of: B1
Assay: protein stability index of a GFP-peptide fusion (GPS, HEK-293T) (PSI 1-6); higher = more stable
Settings: c terminus: a fixed tail appended
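Note: lentivirally expressed fusions sorted by FACS into six bins by GFP to DsRed ratio, PSI derived from sequencing read proportions per bin multiplied by bin number.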

Row | Variant | protein stability index
1 | LVRPLARVTSLANLISPVRNGAVR [R1L] | 2
2 | MVRPLARVTSLANLISPVRNGAVR [R1M] | 2.97
3 | NVRPLARVTSLANLISPVRNGAVR [R1N] | 3.42
4 | PVRPLARVTSLANLISPVRNGAVR [R1P] | 3.11
5 | QVRPLARVTSLANLISPVRNGAVR [R1Q] | 3.19
6 | SVRPLARVTSLANLISPVRNGAVR [R1S] | 3.43
7 | TVRPLARVTSLANLISPVRNGAVR [R1T] | 3.25
8 | VVRPLARVTSLANLISPVRNGAVR [R1V] | 2.15
9 | WVRPLARVTSLANLISPVRNGAVR [R1W] | 2.36
10 | YVRPLARVTSLANLISPVRNGAVR [R1Y] | 2.22
11 | RARPLARVTSLANLISPVRNGAVR [V2A] | 3
12 | RCRPLARVTSLANLISPVRNGAVR [V2C] | 2.64
13 | RDRPLARVTSLANLISPVRNGAVR [V2D] | 3.77
14 | RERPLARVTSLANLISPVRNGAVR [V2E] | 3.69
15 | RFRPLARVTSLANLISPVRNGAVR [V2F] | 1.97
16 | RGRPLARVTSLANLISPVRNGAVR [V2G] | 3.08
17 | RHRPLARVTSLANLISPVRNGAVR [V2H] | 2.91
18 | RIRPLARVTSLANLISPVRNGAVR [V2I] | 2.25
19 | RKRPLARVTSLANLISPVRNGAVR [V2K] | 3.65
20 | RLRPLARVTSLANLISPVRNGAVR [V2L] | 2.29
21 | RMRPLARVTSLANLISPVRNGAVR [V2M] | 3.04
22 | RNRPLARVTSLANLISPVRNGAVR [V2N] | 2.79
23 | RPRPLARVTSLANLISPVRNGAVR [V2P] | 3.11
24 | RQRPLARVTSLANLISPVRNGAVR [V2Q] | 3.59

Row | Variant | protein stability index
25 | RRRPLARVTSLANLISPVRNGAVR [V2R] | 2.92
26 | RSRPLARVTSLANLISPVRNGAVR [V2S] | 3.57
27 | RTRPLARVTSLANLISPVRNGAVR [V2T] | 3.14
28 | RWRPLARVTSLANLISPVRNGAVR [V2W] | 2.67
29 | RYRPLARVTSLANLISPVRNGAVR [V2Y] | 2.62
30 | RVAPLARVTSLANLISPVRNGAVR [R3A] | 3.02
31 | RVCPLARVTSLANLISPVRNGAVR [R3C] | 1.72
32 | RVDPLARVTSLANLISPVRNGAVR [R3D] | 3.03
33 | RVEPLARVTSLANLISPVRNGAVR [R3E] | 2.59
34 | RVFPLARVTSLANLISPVRNGAVR [R3F] | 2.69
35 | RVGPLARVTSLANLISPVRNGAVR [R3G] | 3.1
36 | RVHPLARVTSLANLISPVRNGAVR [R3H] | 2.67
37 | RVIPLARVTSLANLISPVRNGAVR [R3I] | 2.22
38 | RVKPLARVTSLANLISPVRNGAVR [R3K] | 2.81
39 | RVLPLARVTSLANLISPVRNGAVR [R3L] | 2.34
40 | RVMPLARVTSLANLISPVRNGAVR [R3M] | 2.46
41 | RVNPLARVTSLANLISPVRNGAVR [R3N] | 2.36
42 | RVPPLARVTSLANLISPVRNGAVR [R3P] | 3.49
43 | RVQPLARVTSLANLISPVRNGAVR [R3Q] | 3.33
44 | RVSPLARVTSLANLISPVRNGAVR [R3S] | 3.03
45 | RVTPLARVTSLANLISPVRNGAVR [R3T] | 2.99
46 | RVVPLARVTSLANLISPVRNGAVR [R3V] | 2.6
47 | RVWPLARVTSLANLISPVRNGAVR [R3W] | 1.91
48 | RVYPLARVTSLANLISPVRNGAVR [R3Y] | 2.55

Row | Variant | protein stability index
49 | RVRALARVTSLANLISPVRNGAVR [P4A] | 2.06
50 | RVRCLARVTSLANLISPVRNGAVR [P4C] | 1.18
51 | RVRDLARVTSLANLISPVRNGAVR [P4D] | 3.06
52 | RVRELARVTSLANLISPVRNGAVR [P4E] | 2
53 | RVRFLARVTSLANLISPVRNGAVR [P4F] | 2.4
54 | RVRGLARVTSLANLISPVRNGAVR [P4G] | 2.38
55 | RVRHLARVTSLANLISPVRNGAVR [P4H] | 2.86
56 | RVRILARVTSLANLISPVRNGAVR [P4I] | 1.4
57 | RVRKLARVTSLANLISPVRNGAVR [P4K] | 2.87
58 | RVRMLARVTSLANLISPVRNGAVR [P4M] | 1.43
59 | RVRNLARVTSLANLISPVRNGAVR [P4N] | 2.9
60 | RVRQLARVTSLANLISPVRNGAVR [P4Q] | 2.51
61 | RVRRLARVTSLANLISPVRNGAVR [P4R] | 1.97
62 | RVRSLARVTSLANLISPVRNGAVR [P4S] | 2.85
63 | RVRTLARVTSLANLISPVRNGAVR [P4T] | 2.31
64 | RVRVLARVTSLANLISPVRNGAVR [P4V] | 2.02
65 | RVRWLARVTSLANLISPVRNGAVR [P4W] | 2.71
66 | RVRPAARVTSLANLISPVRNGAVR [L5A] | 3.36
67 | RVRPCARVTSLANLISPVRNGAVR [L5C] | 3.04
68 | RVRPDARVTSLANLISPVRNGAVR [L5D] | 3.04
69 | RVRPEARVTSLANLISPVRNGAVR [L5E] | 3.61
70 | RVRPFARVTSLANLISPVRNGAVR [L5F] | 2.71
71 | RVRPGARVTSLANLISPVRNGAVR [L5G] | 2.5
72 | RVRPHARVTSLANLISPVRNGAVR [L5H] | 3.14

Row | Variant | protein stability index
73 | RVRPIARVTSLANLISPVRNGAVR [L5I] | 3.04
74 | RVRPKARVTSLANLISPVRNGAVR [L5K] | 2.85
75 | RVRPMARVTSLANLISPVRNGAVR [L5M] | 2.55
76 | RVRPNARVTSLANLISPVRNGAVR [L5N] | 2.56
77 | RVRPPARVTSLANLISPVRNGAVR [L5P] | 3.3
78 | RVRPQARVTSLANLISPVRNGAVR [L5Q] | 3.54
79 | RVRPRARVTSLANLISPVRNGAVR [L5R] | 3.2
80 | RVRPSARVTSLANLISPVRNGAVR [L5S] | 3.6
81 | RVRPTARVTSLANLISPVRNGAVR [L5T] | 2.56
82 | RVRPVARVTSLANLISPVRNGAVR [L5V] | 3.59
83 | RVRPWARVTSLANLISPVRNGAVR [L5W] | 2.03
84 | RVRPYARVTSLANLISPVRNGAVR [L5Y] | 2.59
85 | RVRPLCRVTSLANLISPVRNGAVR [A6C] | 2.98
86 | RVRPLDRVTSLANLISPVRNGAVR [A6D] | 2.95
87 | RVRPLERVTSLANLISPVRNGAVR [A6E] | 3.06
88 | RVRPLFRVTSLANLISPVRNGAVR [A6F] | 2.71
89 | RVRPLGRVTSLANLISPVRNGAVR [A6G] | 3.98
90 | RVRPLHRVTSLANLISPVRNGAVR [A6H] | 2.69
91 | RVRPLIRVTSLANLISPVRNGAVR [A6I] | 2.76
92 | RVRPLKRVTSLANLISPVRNGAVR [A6K] | 2.74
93 | RVRPLLRVTSLANLISPVRNGAVR [A6L] | 2.72
94 | RVRPLMRVTSLANLISPVRNGAVR [A6M] | 3.18
